Residue numbers refer to the chain shown, from its start.

Common to all, as to assay type: biochemical
The nature of data set [1]: HTP-analysis of supernatants pretreated with acid (MUGal hydrolysis). As to conditions: challenge at pH 4.2; activity of the variant/activity of WT GLA (SEQ ID NO: 5); yeast supernatant. The essentials: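 Supernatants from INVSc1 yeast secreting GLA variants were challenged at 37° C. for 1-3 h in McIlvaine buffer at pH 3.3-4.3. Residual activity was then measured on 4 mM MUGal substrate stock at pH 4.8 with citrate buffer pH 4.3, over 30-180 min at 37° C. Reactions were quenched with sodium carbonate and read by fluorescence (Ex 355/Em 448 nm).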

Data set [2] is described as follows: HTP-analysis of supernatants pretreated with base (MUGal hydrolysis). To be noted: challenge at pH 7.1; activity of the variant/activity of WT GLA (SEQ ID NO: 5); yeast supernatant. The essentials:
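Fluorescence of released 4-MU (Ex 355 nm, Em 448 nm) after carbonate quench reports MUGal hydrolysis by GLA variants secreted from INVSc1 yeast. Before the acidic (pH 4.3-4.8) 30-180 min reaction at 37° C, supernatants had been pre-incubated at pH 7.0-9.7 for 1-18 h at 37° C.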

The nature of data set [3]: HTP-analysis of yeast culture supernatants, no challenge (MUGal hydrolysis). To be noted: activity of the variant/activity of WT GLA (SEQ ID NO: 5), yeast supernatant. The essentials:
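GLA variants were expressed in INVSc1 yeast grown in SD-Ura broth with glucose at 30° C., and culture supernatants were collected after 66-84 h. Supernatant was mixed with McIlvaine buffer pH 4.8 and MUGal (2 mM stock) in 50 mM citrate, 200 mM KCl, pH 4.6, incubated at 37° C. for 30-180 minutes, then quenched with sodium carbonate.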

B1: 132 (protein)
chain: LDNGLARTPTMGWLHWERFMCNLDCQEEPDSCISEKLFYEMAELMVSEGWKDAGYEYLCIDDCWMAPQRDSEGRLQADPQRFPHGIRQLANYVHSKGLKLGIYADVGNKTCAGFPGSFGYYDIDAQTFADWGVDLLKFDGCYCDSLENLADGYKHMSLALNRTGRSIVYSCEWPLYMWPFQKPNYTEIRQYCNHWRNFADIDDSWKSIKSILDWTSFNQERIVDVAGPGGWNDPDMLVIGNFGLSWNQQVTQMALWAIMAAPLFMSNDLRHISPQAKALLQDKDVIAINQDPLGKQGYQLRQGDNFEVWERPLSGLAWAVAMINRQEIGGPRSYTIAVASLGKGVACNPACFITQLLPVKRKLGFYEWTSRLRSHINPTGTVLLQLENTMQMSKDLLL
modifications: Synthetic Polypeptide sequence of Variant No. 132 of mature Human GLA
Take B1: in data set [1], the “Relative Activity of GLA Variants After Challenge at pH 4.2” value (shortened to “Relative Activity … at pH 4.2”) is “+ (+ = 0.5 to 1.5 relative activity over WT GLA (SEQ ID NO: 5))”. In addition, the “Relative Activity of GLA Variants After Challenge at pH 7.1” value (shortened to “Relative Activity … at pH 7.1”) in data set [2] is reported as “+ (+ = 0.5 to 1.5 relative activity over WT GLA (SEQ ID NO: 5))”. Besides, in data set [3], the “Relative Activity of GLA Variants After No Challenge (NC)” value was “+ (+ = 0.5 to 1.5 relative activity over WT GLA (SEQ ID NO: 5))”.

B2: 139 (protein)
chain: B1 chain with Y39M, Q385I
modifications: Synthetic Polypeptide sequence of Variant No. 139 of mature Human GLA
As to B2, the “Relative Activity … at pH 4.2” value in data set [1] was “+ (+ = 0.5 to 1.5 relative activity over WT GLA (SEQ ID NO: 5))”. Further, the “Relative Activity … at pH 7.1” value in data set [2] is “+ (+ = 0.5 to 1.5 relative activity over WT GLA (SEQ ID NO: 5))”. In data set [3], the “Relative Activity of GLA Variants After No Challenge (NC)” value is listed as “+ (+ = 0.5 to 1.5 relative activity over WT GLA (SEQ ID NO: 5))”.

B3: 141 (protein)
chain: B1 chain with Y39M, Q391G
modifications: Synthetic Polypeptide sequence of Variant No. 141 of mature Human GLA
With B3, the “Relative Activity … at pH 4.2” value in data set [1] is “+ (+ = 0.5 to 1.5 relative activity over WT GLA (SEQ ID NO: 5))”. In data set [2], the “Relative Activity … at pH 7.1” value was “+ (+ = 0.5 to 1.5 relative activity over WT GLA (SEQ ID NO: 5))”. For the same molecule, the “Relative Activity of GLA Variants After No Challenge (NC)” value in data set [3] is reported as “+ (+ = 0.5 to 1.5 relative activity over WT GLA (SEQ ID NO: 5))”.

B4: 138 (protein)
chain: B1 chain with Y39M, Q385H
modifications: Synthetic Polypeptide sequence of Variant No. 138 of mature Human GLA
Take B4: the “Relative Activity … at pH 4.2” value in data set [1] was “++ (++ = >1.5 to 2.5 relative activity over WT GLA (SEQ ID NO: 5))”. Moreover, the “Relative Activity … at pH 7.1” value in data set [2] is given as “++ (++ = >1.5 to 2.5 relative activity over WT GLA (SEQ ID NO: 5))”. For the same molecule, the “Relative Activity of GLA Variants After No Challenge (NC)” value in data set [3] is “++ (++ = >1.5 to 2.5 relative activity over WT GLA (SEQ ID NO: 5))”.

B5: 137 (protein)
chain: B1 chain with Y39M, Q302A
modifications: Synthetic Polypeptide sequence of Variant No. 13 of mature Human GLA
With B5, in data set [1], the “Relative Activity … at pH 4.2” value was “+ (+ = 0.5 to 1.5 relative activity over WT GLA (SEQ ID NO: 5))”. Moreover, in data set [2], the “Relative Activity … at pH 7.1” value is “+ (+ = 0.5 to 1.5 relative activity over WT GLA (SEQ ID NO: 5))”. In addition, the “Relative Activity of GLA Variants After No Challenge (NC)” value in data set [3] was “+ (+ = 0.5 to 1.5 relative activity over WT GLA (SEQ ID NO: 5))”.

B6: 36 (protein)
chain: B1 chain with Y39M, A350G
modifications: Synthetic Polypeptide sequence of Variant No. 36 of mature Human GLA
In the case of B6, in data set [1], the “Relative Activity … at pH 4.2” value is listed as “++ (++ = >1.5 to 2.5 relative activity over WT GLA (SEQ ID NO: 5))”. For the same molecule, the “Relative Activity … at pH 7.1” value in data set [2] is reported as “++ (++ = >1.5 to 2.5 relative activity over WT GLA (SEQ ID NO: 5))”. In addition, in data set [3], the “Relative Activity of GLA Variants After No Challenge (NC)” value is given as “+ (+ = 0.5 to 1.5 relative activity over WT GLA (SEQ ID NO: 5))”.

B7: 140 (protein)
chain: B1 chain with Y39M, Q385L
modifications: Synthetic Polypeptide sequence of Variant No. 140 of mature Human GLA
B7: the “Relative Activity … at pH 4.2” value in data set [1] is “++ (++ = >1.5 to 2.5 relative activity over WT GLA (SEQ ID NO: 5))”. Besides, in data set [2], the “Relative Activity … at pH 7.1” value is recorded as “++ (++ = >1.5 to 2.5 relative activity over WT GLA (SEQ ID NO: 5))”. Besides, the “Relative Activity of GLA Variants After No Challenge (NC)” value in data set [3] is “++ (++ = >1.5 to 2.5 relative activity over WT GLA (SEQ ID NO: 5))”.

B8: 134 (protein)
chain: B1 chain with Y39M, N91Q
modifications: Synthetic Polypeptide sequence of Variant No. 134 of mature Human GLA
For the molecule B8, in data set [1], the “Relative Activity … at pH 4.2” value is given as “+ (+ = 0.5 to 1.5 relative activity over WT GLA (SEQ ID NO: 5))”. Also, the “Relative Activity … at pH 7.1” value in data set [2] is “+ (+ = 0.5 to 1.5 relative activity over WT GLA (SEQ ID NO: 5))”. Further, the “Relative Activity of GLA Variants After No Challenge (NC)” value in data set [3] is listed as “+ (+ = 0.5 to 1.5 relative activity over WT GLA (SEQ ID NO: 5))”.

B9: 135 (protein)
chain: B1 chain with Y39M, Q190S, T369D
modifications: Synthetic Polypeptide sequence of Variant No. 135 of mature Human GLA
Regarding B9, the “Relative Activity … at pH 4.2” value in data set [1] is on record as “+++ (+++ = >2.5 relative activity over WT GLA (SEQ ID NO: 5))”. In data set [2], the “Relative Activity … at pH 7.1” value is on record as “++ (++ = >1.5 to 2.5 relative activity over WT GLA (SEQ ID NO: 5))”. Besides, the “Relative Activity of GLA Variants After No Challenge (NC)” value in data set [3] is on record as “++ (++ = >1.5 to 2.5 relative activity over WT GLA (SEQ ID NO: 5))”.

B10: 133 (protein)
chain: B1 chain with Y39M, N388R
modifications: Synthetic Polypeptide sequence of Variant No. 133 of mature Human GLA
Take B10: the “Relative Activity … at pH 4.2” value in data set [1] is “+ (+ = 0.5 to 1.5 relative activity over WT GLA (SEQ ID NO: 5))”. The “Relative Activity … at pH 7.1” value in data set [2] is “+ (+ = 0.5 to 1.5 relative activity over WT GLA (SEQ ID NO: 5))”. In addition, the “Relative Activity of GLA Variants After No Challenge (NC)” value in data set [3] is recorded as “+ (+ = 0.5 to 1.5 relative activity over WT GLA (SEQ ID NO: 5))”.

B11: 136 (protein)
chain: B1 chain with Y39M, Q249A
modifications: Synthetic Polypeptide sequence of Variant No. 136 of mature Human GLA
In the case of B11, the “Relative Activity … at pH 4.2” value in data set [1] is recorded as “+ (+ = 0.5 to 1.5 relative activity over WT GLA (SEQ ID NO: 5))”. Moreover, the “Relative Activity … at pH 7.1” value in data set [2] was “+ (+ = 0.5 to 1.5 relative activity over WT GLA (SEQ ID NO: 5))”. Further, the “Relative Activity of GLA Variants After No Challenge (NC)” value in data set [3] is “+ (+ = 0.5 to 1.5 relative activity over WT GLA (SEQ ID NO: 5))”.
